According to PMC11407766, “OsNF-YB7 inactivates OsGLK1 to inhibit chlorophyll biosynthesis in rice embryo”:

T1: OsNF-YB7-His (Oryza sativa, UniProt A6BLV7 1-254)
T1 sequence: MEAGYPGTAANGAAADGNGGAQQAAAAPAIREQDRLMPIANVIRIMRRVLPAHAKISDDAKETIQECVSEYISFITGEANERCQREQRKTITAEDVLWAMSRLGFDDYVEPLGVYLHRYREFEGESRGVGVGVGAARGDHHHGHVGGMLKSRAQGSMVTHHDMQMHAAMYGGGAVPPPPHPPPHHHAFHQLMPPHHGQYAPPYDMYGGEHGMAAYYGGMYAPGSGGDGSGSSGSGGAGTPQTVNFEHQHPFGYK

T2: OsGLK1-MBP (Oryza sativa, UniProt Q5Z5I4 1-455)
T2 sequence: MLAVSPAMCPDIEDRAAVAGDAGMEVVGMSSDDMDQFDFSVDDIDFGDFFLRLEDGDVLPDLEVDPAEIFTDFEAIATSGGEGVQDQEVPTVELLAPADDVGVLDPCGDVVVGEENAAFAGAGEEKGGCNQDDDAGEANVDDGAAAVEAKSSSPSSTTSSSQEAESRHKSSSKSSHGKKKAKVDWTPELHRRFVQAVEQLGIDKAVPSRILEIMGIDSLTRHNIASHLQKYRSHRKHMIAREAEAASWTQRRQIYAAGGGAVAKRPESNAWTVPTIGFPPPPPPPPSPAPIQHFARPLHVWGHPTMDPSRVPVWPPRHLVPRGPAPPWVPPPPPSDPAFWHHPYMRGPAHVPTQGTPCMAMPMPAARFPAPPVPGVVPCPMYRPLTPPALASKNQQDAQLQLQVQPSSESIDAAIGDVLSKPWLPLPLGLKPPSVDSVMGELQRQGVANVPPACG


Experiments:
OsNF-YB7-His = target: T1, OsNF-YB7-His; experiment: EMSA; Beyotime EMSA/Gel-Shift kit (GS009), manufacturer's conditions; 2 or 4 uM protein in Figure 6G; buffer, salt, pH and temperature not stated; conditions: protein: recombinant, tags: His (pET-28a), blunt
OsGLK1-MBP = target: T2, OsGLK1-MBP; experiment: as above; conditions: protein: recombinant; tags: MBP (pMAL-c5X); label: biotin (3' hydroxyl end of both strands); blunt
[1] = label: biotin (3' hydroxyl end of both strands)

Binder | binding result (OsNF-YB7-His; label: biotin) | binding result (OsGLK1-MBP) | binding result (OsNF-YB7-His; [1])
OsGLK1 promoter probe (dsDNA) DNA 1: TTTTGCAGAAGCGACCAAGCTGCACTTGCGCTCGCGGACAAGGCAACCCA DNA 2: TGGGTTGCCTTGTCCGCGAGCGCAAGTGCAGCTTGGTCGCTTCTGCAAAA | no binding | – | –
OsPORA promoter probe (dsDNA) DNA 1: TACGAAAAAATATCCCACCACGTGTCGCTTTCACAGGACAAT DNA 2: ATTGTCCTGTGAAAGCGACACGTGGTGGGATATTTTTTCGTA | – | binds | binds
OsLHCB4 promoter probe (dsDNA) DNA 1: CCCAATCCCAGCCCTCCACGTGTCACCAACCCCATGGC DNA 2: GCCATGGGGTTGGTGACACGTGGAGGGCTGGGATTGGG | – | binds | binds
